Experimental data reported in publication PMC13486833 (2026).

Tests used:
RAGE-Fc chimera protein [1] = molecular target: T1, RAGE-Fc chimera protein (UniProt Q15109 23-342); assay: BLI; saturation
RAGE-Fc chimera protein [2] = molecular target: T1, RAGE-Fc chimera protein; assay: BLI
RAGE-Fc chimera protein [3] = molecular target: T1, RAGE-Fc chimera protein; assay: BLI; kinetics
RAGE-Fc chimera protein [4] = molecular target: T1, RAGE-Fc chimera protein; assay: ELISA

T1 sequence (Q15109 23-342, change not shown): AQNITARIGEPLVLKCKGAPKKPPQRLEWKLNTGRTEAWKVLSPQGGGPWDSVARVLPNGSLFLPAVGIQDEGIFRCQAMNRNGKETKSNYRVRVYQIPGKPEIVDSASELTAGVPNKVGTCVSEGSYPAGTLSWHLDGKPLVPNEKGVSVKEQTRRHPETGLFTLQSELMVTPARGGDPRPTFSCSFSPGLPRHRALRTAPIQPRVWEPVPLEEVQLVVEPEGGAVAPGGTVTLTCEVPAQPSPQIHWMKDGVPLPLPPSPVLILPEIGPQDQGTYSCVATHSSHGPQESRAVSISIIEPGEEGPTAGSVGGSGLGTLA

Kd (RAGE-Fc chimera protein [1]) [nM] | koff (RAGE-Fc chimera protein [2]) [s⁻¹] | Kd (RAGE-Fc chimera protein [3]) [nM] | Kd (RAGE-Fc chimera protein [4]) [nM] | Binder
3100 | 0.152 | 900 |  | DS-HMGB1 1–164 (domain or fragment, disulfide bond between C22 and C44) GKGDPKKPRGKMSSYAFFVQTCREEHKKKHPDASVNFSEFSKKCSERWKTMSAKEKGKFEDMAKADKARYEREMKTYIPPKGETKKKFKDPNAPKRPPSAFFLFCSEYRPKIKGEHPGLSIGDVAKKLGEMWNNTAADDKQPYEKKAAKLKEKYEKDIAAYRAK
3000 | 0.015 | 900 | 7.22 | 3S-HMGB1 1–214 (natural protein) GKGDPKKPRGKMSSYAFFVQTSREEHKKKHPDASVNFSEFSKKSSERWKTMSAKEKGKFEDMAKADKARYEREMKTYIPPKGETKKKFKDPNAPKRPPSAFFLFSSEYRPKIKGEHPGLSIGDVAKKLGEMWNNTAADDKQPYEKKAAKLKEKYEKDIAAYRAKGKPDAAKKGVVKAEKSKKKKEEEEDEEDEEDEEEEEDEEDEDEEEDDDDE
53400 | 0.439 | 15600 |  | DS Box A 1-88 (protein, intramolecular disulfide Cys22-Cys44 in paper numbering (UniProt Cys23-Cys45); paper numbering omits the initiator Met (offset +1: paper Pro8-Ile78 = UniProt 9-79); any initiator Met or tag remnant left out) GKGDPKKPRGKMSSYAFFVQTCREEHKKKHPDASVNFSEFSKKCSERWKTMSAKEKGKFEDMAKADKARYEREMKTYIPPKGETKKKF
2300 | 0.041 | 800 | 86.1 | FR-HMGB1 1–214 (natural protein) MGKGDPKKPRGKMSSYAFFVQTCREEHKKKHPDASVNFSEFSKKCSERWKTMSAKEKGKFEDMAKADKARYEREMKTYIPPKGETKKKFKDPNAPKRPPSAFFLFCSEYRPKIKGEHPGLSIGDVAKKLGEMWNNTAADDKQPYEKKAAKLKEKYEKDIAAYRAKGKPDAAKKGVVKAEKSKKKKEEEEDEEDEEDEEEEEDEEDEDEEEDDDDE
1300 | 0.043 | 200 | 4.35 | DS-HMGB1 1–214 (natural protein, disulfide bond between C22 and C44) MGKGDPKKPRGKMSSYAFFVQTCREEHKKKHPDASVNFSEFSKKCSERWKTMSAKEKGKFEDMAKADKARYEREMKTYIPPKGETKKKFKDPNAPKRPPSAFFLFCSEYRPKIKGEHPGLSIGDVAKKLGEMWNNTAADDKQPYEKKAAKLKEKYEKDIAAYRAKGKPDAAKKGVVKAEKSKKKKEEEEDEEDEEDEEEEEDEEDEDEEEDDDDE
 |  | 1300 |  | dBB12L (FR-HMGB1 89–174::89–174) (other, fully reduced Cys105 (printed numbering) in both copies; printed n = entry n+1 (C22/C44/C105 = C23/C45/C106 in P09429); direct tandem fusion, with native flanks acting as the linker) KDPNAPKRPPSAFFLFCSEYRPKIKGEHPGLSIGDVAKKLGEMWNNTAADDKQPYEKKAAKLKEKYEKDIAAYRAKGKPDAAKKGVKDPNAPKRPPSAFFLFCSEYRPKIKGEHPGLSIGDVAKKLGEMWNNTAADDKQPYEKKAAKLKEKYEKDIAAYRAKGKPDAAKKGV
500 | 0.067 | 200 | 33.9 | DS-HMGB1 1–184 (domain or fragment, disulfide bond between C22 and C44) GKGDPKKPRGKMSSYAFFVQTCREEHKKKHPDASVNFSEFSKKCSERWKTMSAKEKGKFEDMAKADKARYEREMKTYIPPKGETKKKFKDPNAPKRPPSAFFLFCSEYRPKIKGEHPGLSIGDVAKKLGEMWNNTAADDKQPYEKKAAKLKEKYEKDIAAYRAKGKPDAAKKGVVKAEKSKKKK
